Patent publication US20230114491A1 (IMMUNEONCO BIOPHARMACEUTICALS SHANGHAI, published 2023)

T1: CD24 (human, UniProt P25063 27-59)
T1 construct: whole, on cells; GPI-anchored cell surface protein; also called human CD24; hCD24
T1 chain (looked up): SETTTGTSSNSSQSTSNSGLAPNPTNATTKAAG


Assays:
CD47 [1] = target: T2, CD47 (human, UniProt Q08722 19-323); assay: flow cytometry on MCF-7 cells that carry both CD24 and CD47; the two targets are not resolved
T2 construct: whole, on cells; also called CD47s on Jurkat cells; CD47s on MCF-7 human breast cancer cells
T2 sequence (Q08722 19-323): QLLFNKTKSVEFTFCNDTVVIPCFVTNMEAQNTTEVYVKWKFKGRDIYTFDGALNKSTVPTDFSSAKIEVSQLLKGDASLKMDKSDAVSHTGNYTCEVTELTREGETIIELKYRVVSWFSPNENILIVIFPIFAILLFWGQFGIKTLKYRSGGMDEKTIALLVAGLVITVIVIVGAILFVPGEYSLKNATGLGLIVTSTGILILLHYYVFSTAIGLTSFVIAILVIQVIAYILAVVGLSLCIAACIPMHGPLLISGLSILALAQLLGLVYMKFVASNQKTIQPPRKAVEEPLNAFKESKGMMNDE
Protocol: (§1) Cells were washed with cold PBS twice, and then incubated with 100 μl FITC-conjugated secondary antibody against human IgG-Fc (Cat #F9512, Sigma) for 45 min. Cells were washed twice and re-suspended in 200 μl PBS. Then, the cells were subject to FACS analysis using a flow cytometer (Merck Millipore, Guava® easyCyte 5HT).

CD24 [2] = target: T1, CD24; assay: as above
Protocol: as §1

CD24 [3] = target: T1, CD24; assay: flow cytometry on CD24+CD47+ MCF-7 cells; positive control
Protocol: as §1

CD47 [4] = target: T2, CD47; assay: flow cytometry on Jurkat cells (naturally expressing CD47), FITC anti-human IgG-Fc
Protocol: as §1

Row | binding result (CD47 [1]) | binding result (CD24 [2]) | binding result (CD24 [3]) | binding result (CD47 [4]) | Binder
1 | binds | binds |  |  | IMM4702C (bispecific antibody, human IgG1, kappa, Mutated SIRPαD1 linked via (G4S)3 to the N-terminus of each light chain of IMM47C; also called recombinant fusion protein IMM4702C; IMM47C's heavy chain + SIRPαD1-linker-IMM47C's light chain) heavy: DVQLQESGPDLVKPSQSLSLTCTVTGYSITSGYSWHWIRQFPGNKLEWMGYIHYSGSTKYNPSLKSRISITRDTSKNQFFLQLNSVTTEDTATYFCARGADYALDYWGQRTSVTVSSASTKGPSVFPLAPSSKSTSGGTAALGCLVKDYFPEPVTVSWNSGALTSGVHTFPAVLQSSGLYSLSSVVTVPSSSLGTQTYICNVNHKPSNTKVDKRVEPKSCDKTHTCPPCPAPELLGGPSVFLFPPKPKDTLMISRTPEVTCVVVDVSHEDPEVKFNWYVDGVEVHNAKTKPREEQYNATYRVVSVLTVLHQDWLNGKEYKCKVSNKALPAPIAATISKAKGQPREPQVYTLPPSREEMTKNQVSLTCLVKGFYPSDIAVEWESNGQPENNYKTTPPVLDSDGSFFLYSKLTVDKSRWQQGNVFSCSVMHEALHNHYTQKSLSLSPGK light: not shown
2 |  |  | binds |  | IMM47H (antibody, human IgG1, kappa, V domains shown, IgG antibody with humanized VH and humanized VL; also called anti-CD24 antibody IMM47H) VH: DVQLQESGPGLVKPSETLSLTCTVSGYSITSGYSWHWIRQPPGKGLEWIGYIHYSGSTKYNPSLKSRVTISVDTSKNQFSLKLSSVTAADTAVYYCARGADYALDYWGQRTSVTVSS VL: not shown
3 |  | binds |  | binds | IMM4701 (bispecific antibody, human IgG1, kappa, Mutated SIRPαD1 linked via (G4S)3 to the N-terminus of each heavy chain of the anti-CD24 IgG IMM47 (mouse VH, humanized VL); also called recombinant fusion protein IMM4701; SIRPαD1-linker-IMM47's heavy chain + IMM47's light chain) heavy: not shown light: DIQMTQSPSSLSASVGDRVTITCKSSQSLLYSSNQKNYLAWYQQKPGKAPKLLIYWASTRESGVPSRFSGSGSGTDFTLTISSLQPEDFATYYCQQNFIYPLTFGGGTKVELKRTVAAPSVFIFPPSDEQLKSGTASVVCLLNNFYPREAKVQWKVDNALQSGNSQESVTEQDSKDSTYSLSSTLTLSKADYEKHKVYACEVTHQGLSSPVTKSFNRGEC
4 | binds | binds |  |  | IMM4702H (bispecific antibody, human IgG1, kappa, Mutated SIRPαD1 linked via (G4S)3 to the N-terminus of each light chain of IMM47H (humanized VH and VL); also called recombinant fusion protein IMM4702H; IMM47H's heavy chain + SIRPαD1-linker-IMM47H's light chain) heavy: DVQLQESGPGLVKPSETLSLTCTVSGYSITSGYSWHWIRQPPGKGLEWIGYIHYSGSTKYNPSLKSRVTISVDTSKNQFSLKLSSVTAADTAVYYCARGADYALDYWGQRTSVTVSSASTKGPSVFPLAPSSKSTSGGTAALGCLVKDYFPEPVTVSWNSGALTSGVHTFPAVLQSSGLYSLSSVVTVPSSSLGTQTYICNVNHKPSNTKVDKRVEPKSCDKTHTCPPCPAPELLGGPSVFLFPPKPKDTLMISRTPEVTCVVVDVSHEDPEVKFNWYVDGVEVHNAKTKPREEQYNATYRVVSVLTVLHQDWLNGKEYKCKVSNKALPAPIAATISKAKGQPREPQVYTLPPSREEMTKNQVSLTCLVKGFYPSDIAVEWESNGQPENNYKTTPPVLDSDGSFFLYSKLTVDKSRWQQGNVFSCSVMHEALHNHYTQKSLSLSPGK light: not shown
